{
  "source": "patent US20240270821A1",
  "about": "“GIP/GLP1/GCG TRI-RECEPTOR AGONISTS AND USES THEREOF” (priority 2023, published 2024)",
  "binders": {"B1": {"name": "Example 359 (peptide)", "chain": "YXQGTFTSDYSXXLDKKAQXAFIEYLLEGGESSGAPPPSGS", "modifications": "synthetic construct; SITE 2: note = 2-Aminoisobutyric Acid; SITE 12: note = L-ornithine; SITE 13: note = alpha-methyl-leucine; SITE 17: note = Lysine is chemically modified through conjugation of the epsilon-amino group of the Lysine side chain with (2-[2-(2-Amino-ethoxy)-ethoxy]-acetyl)-(gamma-Glu)"}, "B2": {"name": "Example 360 (peptide)", "chain": "Y[Aib]QGTFTSDYS[Dap][αMeL]LDKK([AEEA-γGlu-C18 diacid])AQ[Aib]AFIEYLLEGGESSGAPPPSGS-NH2"}, "B3": {"name": "Example 361 (peptide)", "chain": "B1 chain with X12R", "modifications": "synthetic construct; SITE 2: note = 2-Aminoisobutyric Acid; SITE 13: note = alpha-methyl-leucine; SITE 17: note = Lysine is chemically modified through conjugation of the epsilon-amino group of the Lysine side chain with (2-[2-(2-Amino-ethoxy)-ethoxy]-acetyl)-(gamma-Glu)-CO-(CH2) 16-CO2H; SITE 20: n"}, "B4": {"name": "Example 362 (peptide)", "chain": "B1 chain with X12Q", "modifications": "synthetic construct; SITE 2: note = 2-Aminoisobutyric Acid; SITE 13: note = alpha-methyl-leucine; SITE 17: note = Lysine is chemically modified through conjugation of the epsilon-amino group of the Lysine side chain with (2-[2-(2-Amino-ethoxy)-ethoxy]-acetyl)-(gamma-Glu)-CO-(CH2) 16-CO2H; SITE 20: n"}, "B5": {"name": "Example 686 (peptide)", "chain": "YXQGTXTSDXSIXLDXKAQXXFIEXLIEGGPSSGEPPPETE", "modifications": "synthetic construct; SITE 2: note = 2-Aminoisobutyric Acid; SITE 6: note = alpha-methyl-2-fluoro-L-phenylalanine; SITE 10: note = 3-(4-Pyridyl)-L-alanine; SITE 13: note = alpha-methyl-leucine; SITE 16: note = L-ornithine; SITE 17: note = Lysine is chemically modified through conjugation of the epsil"}, "B6": {"name": "Example 1026 (peptide)", "chain": "YXQGTFTSDXSQXLDXKAQXQFIEXLIEGGPSSGEPPPSGSEE", "modifications": "non-natural residues, lipidated Lys, C-terminal amide; synthetic construct; SITE 2: note = 2-Aminoisobutyric Acid; SITE 10: note = 3-(4-Pyridyl)-L-alanine; SITE 13: note = alpha-methyl-leucine; SITE 16: note = L-ornithine; SITE 17: note = Lysine is chemically modified through conjugation of the epsilon-amino group of the Lysine side chain with (gamma-Gl)"}, "B7": {"name": "Example 107 (peptide)", "chain": "B1 chain with Y10F, E31P, S41E", "modifications": "synthetic construct; SITE 2: note = 2-Aminoisobutyric Acid; SITE 12: note = L-ornithine; SITE 13: note = alpha-methyl-leucine; SITE 17: note = Lysine is chemically modified through conjugation of the epsilon-amino group of the Lysine side chain with (2-[2-(2-Amino-ethoxy)-ethoxy]-acetyl)2-(gamma-Glu)"}, "B8": {"name": "Example 110 (peptide)", "chain": "B1 chain with Y10F, G29X, E31P, S41E", "modifications": "synthetic construct; SITE 2: note = 2-Aminoisobutyric Acid; SITE 12: note = L-ornithine; SITE 13: note = alpha-methyl-leucine; SITE 17: note = Lysine is chemically modified through conjugation of the epsilon-amino group of the Lysine side chain with (2-[2-(2-Amino-ethoxy)-ethoxy]-acetyl)-(gamma-Glu)"}, "B9": {"name": "Example 111 (peptide)", "chain": "B1 chain with Y10F, G29X, E31P, S41E", "modifications": "synthetic construct; SITE 2: note = 2-Aminoisobutyric Acid; SITE 12: note = L-ornithine; SITE 13: note = alpha-methyl-leucine; SITE 17: note = Lysine is chemically modified through conjugation of the epsilon-amino group of the Lysine side chain with (2-[2-(2-Amino-ethoxy)-ethoxy]-acetyl)2-(gamma-Glu)"}},
  "note": "Positions count from the first letter of the chain named. Starred links: 1 amine or outer side, 2 acyl side, 3 side chain; linkers in the order of their positions; H or OH if unused. Non-standard residues stand in square brackets, D forms with d. Groups on a side chain read outwards from the residue. No end group written: not given here. *: point of attachment. C18 diacid = O=C(O)CCCCCCCCCCCCCCCCC(=O)*; γGlu = O=C(O)[C@H](CCC(=O)[*:2])N[*:1]; αMeL = CC(C)C[C@](C)(N)C(=O)O; Dap = NC[C@H](N)C(=O)O; AEEA = NCCOCCOCC(=O)O; Aib = CC(C)(N)C(=O)O",
  "data": [
    {"target": "human GLP-1R (SNAP-GLP-1R expressed in HEK293 cells) (human) (UniProt P43220)", "sequence (P43220 24-463)": "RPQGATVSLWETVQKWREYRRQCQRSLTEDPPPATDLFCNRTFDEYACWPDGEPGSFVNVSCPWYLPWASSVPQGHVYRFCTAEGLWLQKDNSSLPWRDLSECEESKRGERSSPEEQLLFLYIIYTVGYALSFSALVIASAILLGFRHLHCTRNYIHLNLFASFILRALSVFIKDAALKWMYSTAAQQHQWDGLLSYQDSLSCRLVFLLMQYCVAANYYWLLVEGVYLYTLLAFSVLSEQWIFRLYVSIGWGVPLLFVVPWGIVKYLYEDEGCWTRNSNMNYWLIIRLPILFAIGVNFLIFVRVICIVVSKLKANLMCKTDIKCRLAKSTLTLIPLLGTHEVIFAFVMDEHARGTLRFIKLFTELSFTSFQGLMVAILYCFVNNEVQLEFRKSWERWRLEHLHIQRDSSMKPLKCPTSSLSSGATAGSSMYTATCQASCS", "experiment": "cell-based or functional assay", "units": {"GLP1R Internalization EC50": "nM", "Internalization % TOP": "%"}, "values": [
      {"binder": "B1", "GLP1R Internalization EC50": 49.6, "Internalization % TOP": 74.4},
      {"binder": "B2", "GLP1R Internalization EC50": 214, "Internalization % TOP": 66.1},
      {"binder": "B3", "GLP1R Internalization EC50": 50.4, "Internalization % TOP": 73},
      {"binder": "B4", "GLP1R Internalization EC50": 22.8, "Internalization % TOP": 77.5},
      {"binder": "B5", "GLP1R Internalization EC50": 33.2, "Internalization % TOP": 101},
      {"binder": "B6", "GLP1R Internalization EC50": 47.4, "Internalization % TOP": 80},
      {"binder": "B7", "GLP1R Internalization EC50": 150, "Internalization % TOP": 45.1},
      {"binder": "B8", "GLP1R Internalization EC50": 28.3, "Internalization % TOP": 42.5},
      {"binder": "B9", "GLP1R Internalization EC50": 49.1, "Internalization % TOP": 46.4}
    ]},
    {"target": "hGLP-1R (Homo sapiens, UniProt P43220)", "sequence (P43220 24-463)": "as above", "experiment": "cell-based or functional assay", "units": {"Relative cAMP EC50": "nM", "cAMP Rel EC50, nM (1% HSA)": "nM", "cAMP Rel EC50 (1% HSA)": "nM", "cAMP Rel EC50, nM (in the presence of 1% HSA)": "nM"}, "values": [
      {"binder": "B1", "Relative cAMP EC50": 4.61, "cAMP Rel EC50, nM (1% HSA)": 826},
      {"binder": "B2", "Relative cAMP EC50": 5.86, "cAMP Rel EC50, nM (1% HSA)": 989},
      {"binder": "B3", "cAMP Rel EC50, nM (1% HSA)": 376},
      {"binder": "B4", "Relative cAMP EC50": 1.77, "cAMP Rel EC50, nM (1% HSA)": 450},
      {"binder": "B5", "cAMP Rel EC50 (1% HSA)": 19.1},
      {"binder": "B6", "Relative cAMP EC50": 1.77, "cAMP Rel EC50, nM (1% HSA)": 299},
      {"binder": "B7", "Relative cAMP EC50": 8.5, "cAMP Rel EC50, nM (in the presence of 1% HSA)": 1110},
      {"binder": "B8", "Relative cAMP EC50": 2.99, "cAMP Rel EC50, nM (in the presence of 1% HSA)": 821},
      {"binder": "B9", "Relative cAMP EC50": 5.06, "cAMP Rel EC50, nM (in the presence of 1% HSA)": 878}
    ]},
    {"target": "human glucagon receptor (human) (UniProt P47871)", "sequence (P47871 26-477)": "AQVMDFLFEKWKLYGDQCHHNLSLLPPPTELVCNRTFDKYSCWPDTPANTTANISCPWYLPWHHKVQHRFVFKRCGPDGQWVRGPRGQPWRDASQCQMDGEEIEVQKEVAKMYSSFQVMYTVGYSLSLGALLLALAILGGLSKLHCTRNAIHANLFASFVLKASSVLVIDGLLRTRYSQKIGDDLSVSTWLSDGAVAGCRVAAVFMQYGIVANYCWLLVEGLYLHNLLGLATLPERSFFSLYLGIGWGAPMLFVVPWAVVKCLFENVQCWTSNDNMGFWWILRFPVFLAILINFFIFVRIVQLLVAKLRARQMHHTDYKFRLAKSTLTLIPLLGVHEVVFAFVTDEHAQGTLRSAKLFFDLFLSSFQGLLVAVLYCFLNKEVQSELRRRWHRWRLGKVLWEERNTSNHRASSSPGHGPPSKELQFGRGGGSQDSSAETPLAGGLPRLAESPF", "experiment": "cell-based or functional assay", "units": {"Relative cAMP EC50": "nM", "cAMP Rel EC50, nM (1% HSA)": "nM", "cAMP Rel EC50 (1% HSA)": "nM", "cAMP Rel EC50, nM (in the presence of 1% HSA)": "nM"}, "values": [
      {"binder": "B1", "Relative cAMP EC50": 2.1, "cAMP Rel EC50, nM (1% HSA)": 957},
      {"binder": "B2", "Relative cAMP EC50": 5.28, "cAMP Rel EC50, nM (1% HSA)": 1470},
      {"binder": "B3", "cAMP Rel EC50, nM (1% HSA)": 987},
      {"binder": "B4", "Relative cAMP EC50": 6.04, "cAMP Rel EC50, nM (1% HSA)": 1450},
      {"binder": "B5", "cAMP Rel EC50 (1% HSA)": 169},
      {"binder": "B6", "Relative cAMP EC50": 6.32, "cAMP Rel EC50, nM (1% HSA)": 2080},
      {"binder": "B7", "Relative cAMP EC50": 10.8, "cAMP Rel EC50, nM (in the presence of 1% HSA)": 1690},
      {"binder": "B8", "Relative cAMP EC50": 2.45, "cAMP Rel EC50, nM (in the presence of 1% HSA)": 627},
      {"binder": "B9", "Relative cAMP EC50": 4.25, "cAMP Rel EC50, nM (in the presence of 1% HSA)": 1260}
    ]},
    {"target": "T1, human GIP receptor (human) (UniProt P48546)", "T1 sequence (looked up)": "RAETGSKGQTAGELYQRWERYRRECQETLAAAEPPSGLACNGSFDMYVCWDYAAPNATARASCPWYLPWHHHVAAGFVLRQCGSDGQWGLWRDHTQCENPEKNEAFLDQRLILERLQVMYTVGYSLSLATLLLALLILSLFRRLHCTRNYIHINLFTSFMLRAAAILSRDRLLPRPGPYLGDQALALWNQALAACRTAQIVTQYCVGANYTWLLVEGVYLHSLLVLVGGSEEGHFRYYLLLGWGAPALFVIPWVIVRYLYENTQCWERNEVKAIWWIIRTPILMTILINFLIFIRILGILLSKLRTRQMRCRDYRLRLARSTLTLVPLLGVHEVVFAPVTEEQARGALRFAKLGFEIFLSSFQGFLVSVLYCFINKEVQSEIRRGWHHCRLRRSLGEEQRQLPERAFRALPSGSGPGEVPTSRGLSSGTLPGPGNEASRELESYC", "experiment": "cell-based or functional assay", "units": {"Relative cAMP EC50": "nM", "cAMP Rel EC50, nM (1% HSA)": "nM", "cAMP Rel EC50 (1% HSA)": "nM", "cAMP Rel EC50, nM (in the presence of 1% HSA)": "nM"}, "values": [
      {"binder": "B1", "Relative cAMP EC50": 0.281, "cAMP Rel EC50, nM (1% HSA)": 103},
      {"binder": "B2", "Relative cAMP EC50": 0.45, "cAMP Rel EC50, nM (1% HSA)": 78.3},
      {"binder": "B3", "cAMP Rel EC50, nM (1% HSA)": 46.3},
      {"binder": "B4", "Relative cAMP EC50": 0.262, "cAMP Rel EC50, nM (1% HSA)": 38.7},
      {"binder": "B5", "cAMP Rel EC50 (1% HSA)": 0.542},
      {"binder": "B6", "Relative cAMP EC50": 0.308, "cAMP Rel EC50, nM (1% HSA)": 61.3},
      {"binder": "B7", "Relative cAMP EC50": 0.426, "cAMP Rel EC50, nM (in the presence of 1% HSA)": 61.3},
      {"binder": "B8", "Relative cAMP EC50": 0.102, "cAMP Rel EC50, nM (in the presence of 1% HSA)": 19.8},
      {"binder": "B9", "Relative cAMP EC50": 0.0888, "cAMP Rel EC50, nM (in the presence of 1% HSA)": 10.4}
    ]}
  ]
}
